Assay results taken from paper PMC3282741, “Independent Recruitment of a Flavin-Dependent Monooxygenase for Safe Accumulation of Sequestered Pyrrolizidine Alkaloids in Grasshoppers and Moths” (PLoS ONE, 2012).

What was measured:
[1] = tested on: CO[C@H](C)[C@](O)(C(=O)OCC1=CCN2CC[C@H](O)[C@@H]12)C(C)C; test: purified protein; assay type: biochemical, Zonocerus variegatus; conditions: 0.2 mM NADPH, 100 mM glycine/NaOH pH 9, 37°C
Source text: (§1) photometric or radioassay N-oxygenation, initial rates on ZvPNO

[2] = tested on: C[C@H]1C(=O)O[C@@H]2CCN3CC=C(COC(=O)[C@](C)(O)[C@]1(C)O)[C@H]23; test: purified protein; assay type: biochemical, Zonocerus variegatus; conditions: 0.2 mM NADPH, 100 mM glycine/NaOH pH 9, 37°C
Source text: as §1

[3] = tested on: C/C=C1/C[C@@H](C)[C@@](C)(O)C(=O)OCC2=CCN3CC[C@@H](OC1=O)[C@@H]23; test: purified protein; assay type: biochemical, Zonocerus variegatus; conditions: 0.2 mM NADPH, 100 mM glycine/NaOH pH 9, 37°C
Source text: as §1

[4] = tested on: CN1[C@@H]2CC[C@H]1CC(OC(=O)C(CO)c1ccccc1)C2; test: purified protein; conditions: 0.2 mM NADPH, 100 mM glycine/NaOH pH 9, 37°C
ZvPNO = molecular target: T1, ZvPNO (Zonocerus variegatus, UniProt L0N8S9); assay type: biochemical; conditions: 0.2 mM NADPH; 100 mM glycine/NaOH pH 9; 37°C
T1 construct: gene pno; full ORF (1242 bp, 47,793 Da subunit), no signal peptide predicted, C-terminal His6, pET28a, E. coli BL21(DE3), Ni-NTA; homodimer (91,200 Da)
Source text: as §1

Row | Substance | Km [1] [µM] | Vmax [1] [µmol/min/mg] | kcat [1] [s⁻¹] | kcat/Km [1] [M⁻¹ s⁻¹] | Km [2] [µM] | Vmax [2] [µmol/min/mg] | kcat [2] [s⁻¹] | kcat/Km [2] [M⁻¹ s⁻¹] | Km [3] [µM] | Vmax [3] [µmol/min/mg] | kcat [3] [s⁻¹] | kcat/Km [3] [M⁻¹ s⁻¹] | Km [4] [µM] | Vmax [4] [µmol/min/mg] | kcat [4] [s⁻¹] | kcat/Km [4] [M⁻¹ s⁻¹] | Km (ZvPNO) [µM]
1 | ZvPNO (Zonocerus variegatus) | 263.89 ± 10.06 | 0.149 | 0.12 | 454 | 11.93 ± 0.76 | 1.2 | 0.96 | 80500 | 1.08 ± 0.07 | 1.24 | 0.99 | 917000 | 9.83 ± 1.04 | 0.461 | 0.37 | 37600 | –
2 | phalaenopsine | – | – | – | – | – | – | – | – | – | – | – | – | – | – | – | – | 838 ± 77.4
